This data set can be described thus: label from the status in PepcDB records.
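Also: failed if final PepcDB status was selected cloned or expressed and not failed if soluble or beyond.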

Turning to “MEPNKDDNVSLAATAQISAPPVLQDASSLPGFSAIPPVVPPSFPPPMAPIPMMPHPPVARPPTFRPPVSQNGGVKTSDSDSESDDEHIEISEESKQVRERQEKALQDLLVKRRAAAMAVPTNDKAVRDRLRRLGEPITLFGEQEMERRARLTQLLTRYDINGQLDKLVKDHEEDVTPKEEVDDEVLEYPFFTEGPKELREARIEIAKFSVKRAAVRIQRAKRRRDDPDEDMDAETKWALKHAKHMALDCSNFGDDRPLTGCSFSRDGKILATCSLSGVTKLWEMPQVTNTIAVLKDHKERATDVVFSPVDDCLATASADRTAKLWKTDGTLLQTFEGHLDRLARVAFHPSGKYLGTTSYDKTWRLWDINTGAELLLQEGHSRSVYGIAFQQDGALAASCGLDSLARVWDLRTGRSILVFQGHIKPVFSVNFSPNGYHLASGGEDNQCRIWDLRMRKSLYIIPAHANLVSQVKYEPQEGYFLATASYDMKVNIWSGRDFSLVKSLAGHESKVASLDITADSSCIATVSHDRTIKLWTSSGNDDEDEEKETMDIDL”, the protein production result is listed as “failed”.

“MEPQKESNQNYLPYPPHPQQDHDEIDLRELFKALWEGKWIVIATTFVIAVSAVLYALSLPNIYKADALLAPAESSNGGGLSKMAGQLGGLAALAGVNLGASESSQTDLAVQVMRSRQFINTFINKHDLLVPLMAGKDWDLSNNKLILDEELYNPNTGEWLRDAKGLRGATPTAQEAFEVFSKEVLSINQDKESGLYTVSMKNYSPYIAQQWVNWLIEDINKAMRERTIAETSQNLAYLNTQLQKTAVTDMQSTFYKLIEEQTKSLMLAEVQEEFVFKVVDPAVVPELKDSPKRVLICVLGILLGVMLGVAIVLIRIVFRKEDTENLEPRT”: the protein production entry is listed as “failed”.

Take “MEPSAKHLQLQTLLSERHAYLMEGNREAMHQLLSSDFSFIDGQGRQFDAETYLDHYVDPDQIQWSNQISESMVVEVFETTALVQEIVEDHFSYGRSMYIGRFRSVSLYHWANEGWKWHFHQLTPLDPS”: the protein production result is listed as “not failed”.

With “MEQLQVGQVTLTWLNGGVTHLDGGAMFGVVPKPLWSKKYPPNDQNQIELRTDPILVEAGGKRLLIESGIGNGKLTDKQKRNFGVTEESSLDESLAALGLTRGDIDIVIMTHLHFDHACGLTVWEDGRLVPAFPRAAIITSDVEWEEMRAPNIRSRNTYWKENWEPIAEQVIPFTKETEVVSGIRLIHTGGHSAGHAIVLIESDGEMAIHLGDLLGTHAHQNVLWVMAYDDYPMDSIFAKQRWLPYGIERNAWFTFYHDAYYRAVKWREDGTIAEQVKRNRPTLLEHHHHHH”, the protein production entry is “not failed”.

Regarding “MEQMKITNLTGEQISFQLILHSGNARSCIIQSLRAYKEGKKDEADALIAKAEQDLSAAHDIHFQMIQKESGGEATAFSLLLMHAEDHLMSTLSMKELVKEMLDLFKTKNI”, the protein production result is given as “failed”.

Consider “MEQNITLKDRSKLVISGVEHIYSFNDKRVELKTSVGEMVIEGENLDMSKLSIDENIISIDGTINSMVYAKPKKPQESFLKKVFR”, for which the protein production result is “failed”.

For “MEQQKDYIELYENEELIEIREARMDDLDTIAKFNYNLAKETEGKELDMDVLTKGVKALLLDERKGKYHVYTVFDKVVAQIMYTYEWSDWRNGNFLWIQSVYVDKEYRRKGIFNYLFNYIKNICDKDENIVGMRLYVEKENINAKATYESLNMYECDYNMYEYEVIHS”, the protein production entry is “failed”.

As for “MEQRIWDLFGISADGNISRGNSGCVHTRNNKKEGDVLKVLTYVMLASVILFTTTYLILYLTYAKPVEIDVPFYGAPRGYTTITYEEVILPLTGKYKIENCYVQDSRSIYSNEGYLSERGVRIIVGNYTEDVYVRLIPQKMIPSEIIFLLMVGGVLGYVGDRMFKFK”, the protein production entry is reported as “failed”.

In the case of “MERAAFGKLVQALRREHRDEKGRVWTQEVLAERTQLPKRTIERIENGSLAHLDADILLRLADALELTIGERREFFFAATGIIEQKSATYKRSPEESLQYLIDMIRNMNVPAFVTDQYVNIIAANMITIRFFNIPMELIETAPLLPHGYNLMRVVFGTEYDFRRVVGTMWDEVARHNMQLFRAISLRVRADGYFVELLDNLMQYREFKRFWERAHLETEDTSAENFWYQYTHPVYGLLSYVSSRSQIPTSMGLLSMHTYIPLSPATTDLFAKLSTVANQDVIRLAPWPRSNG”, the protein production result is reported as “not failed”.

As for “MERAFLRYVPILAFITIMTMYVEMVILPSLPEIENQFSITSSEASWVLSSETLAGMTLAPFLGKLADSYGRKKVLISILVVYILSVFLTAISPNYSILLISRSIQGIGLSINPIAYTILRERIPDRELPIAQGIIASTFAIGAAVALPIGSYISQYFSWEFAYETAIPLLILSTIIIYVILPSSESKGSDRKIDDVGVILLSLSFLILGIGLTEAPTWGWTSLQFFTSLLLSILLFYLFALHISKSRNPIIDPYDFKNPNVAVPLISSFITGFGLFLTFQSLVFIFELPSPIGYGMTILQTGETMAPIALIILIAGPFFGRLVTKIGYMKVILTSSSVSSFLLLFLAYIISLRISVLELMGFLSLILFFISGMNVTRVTLLIASSKRERMSTLTGTNTSMRLMGNTLGPIVVGSLEDTFKTPIFEGYLNNIPIFAFVPSRLAFEYAFLISMATTVLVTILATRIRERPSTTTYA”, the protein production entry is on record as “failed”.

As for “MERDGCAGGGSRGGEGGRAPREGPAGNGRDRGRSHAAEAPGDPQAAASLLAPMDVGEEPLEKAARARTAKDPNTYKVLSLVLSVCVLTTILGCIFGLKPSCAKEVKSCKGRCFERTFGNCRCDAACVELGNCCLDYQETCIEPEHIWTCNKFRCGEKRLTRSLCACSDDCKDKGDCCINYSSVCQGEKSWVEEPCESINEPQCPAGFETPPTLLFSLDGFRAEYLHTWGGLLPVISKLKKCGTYTKNMRPVYPTKTFPNHYSIVTGLYPESHGIIDNKMYDPKMNASFSLKSKEKFNPEWYKGEPIWVTAKYQGLKSGTFFWPGSDVEINGIFPDIYKMYNGSVPFEERILAVLQWLQLPKDERPHFYTLYLEEPDSSGHSYGPVSSEVIKALQRVDGMVGMLMDGLKELNLHRCLNLILISDHGMEQGSCKKYIYLNKYLGDVKNIKVIYGPAARLRPSDVPDKYYSFNYEGIARNLSCREPNQHFKPYLKHFLPKRLHFAKSDRIEPLTFYLDPQWQLALNPSERKYCGSGFHGSDNVFSNMQALFVGYGPGFKHGIEADTFENIEVYNLMCDLLNLTPAPNNGTHGSLNHLLKNPVYTPKHPKEVHPLVQCPFTRNPRDNLGCSCNPSILPIEDFQTQFNLTVAEEKIIKHETLPYGRPRVLQKENTICLLSQHQFMSGYSQDILMPLWTSYTVDRNDSFSTEDFSNCLYQDFRIPLSPVHKCSFYKNNTKVSYGFLSPPQLNKNSSGIYSEALLTTNIVPMYQSFQVIWRYFHDTLLRKYAEERNGVNVVSGPVFDFDYDGRCDSLENLRQKRRVIRNQEILIPTHFFIVLTSCKDTSQTPLHCENLDTLAFILPHRTDNSESCVHGKHDSSWVEELLMLHRARITDVEHITGLSFYQQRKEPVSDILKLKTHLPTFSQED”, the protein production entry is given as “failed”.

As for “MERHEEIKKGAWIGILGNTVLAVLKILVGLLTGSYAILADGIDTSTDIFTSLVILLSSRISGKPPDETHPYGHERAETIASKIISFVMFYAGASLLVESVKRLVKQEFSLELTLTAFIVVGISVAGKTFLFLYKLSLGKRLKSSATISDALNMRNDIMISGTVLAGMVAMKTFGWWWLDSLLAIFVSIMILRTSFSVFYEAAYELMDGMKRTELDMYDDIFAVLERFPNVHNPHRVRIRRVGTKYFIEMDIEVDGKMSVKDAHELTVKIRKEMLKRRDDIEDVTIHVEPLGNVEEEGFGLKKGEKK”, the protein production entry is given as “failed”.

For the sequence “MERHQHLLSEYQQILTLSEQMLVLATEGNWDALVDLEMTYLKAVESTANITISSCSSLMLQDLLREKLRAILDNEIEIKRLLQLRLDRLSDLVGQSTKQQAVNNTYGQFPDHALLLGETQ”, the protein production result is listed as “not failed”.

As for “MESDRNLNYINLFMIFVNLIIIVFTSEIMTITLYKISSEFMARDFLDQITVIPWKPQNITIVSIGAYIILIILITVKKKYAKFLNKWEIAALLLCEIFFSVAIMTALNMSYNGIILFIIADLVTNTKDKSNKIIFLILMIIIYIFSVYDFISLKIKMVSFENFLYYYTANRRSYLMELKSILNSINIIVFILYMIVFIQVQMRENEKITSLNKKLNLANEKLEVMNVQLKEYAVKIGSMAETRERNRMAREIHDTLGHALTGISVGIDACLTTIDVSKELTKKQLNIIADVAREAIKDVRRSVKKLRPDALENSSLQDALNNMISRISKATKTKVFLNANIKLLKFGHDEEDTIYRIIQEGITNSIRHGQAEEIYIDMIRRDKQLNITIRDNGKGCANVEEGFGLRHIEERVKLLNGTVEYDGSDSFLITVNIPIRWGDGS”, the protein production result is “failed”.

As for “MESIGLVEVNSIARGIEAADAMLKAAQVDLLEAKPVCPGKYIVLICGDVAAVQSSVTAGKTMAAHSVLDDFILPNVHPQVLTAISAATPLTLIKALGIIETFSIASLIVAADTAAKTGQVDLVEIRIGMGIGGKSFVTLTGDVASVESSVAAGVMLASERGMLVDKVVIPSPHDHLKRCLC”, the protein production result is “not failed”.

Take “MESITEWDLGSLRTYYSVEPSENFQEDEFLDFNLVPCLQTELWKAQTRIKELEAEKFKSEETIRCLIRNQRNEKEETTNPFVDYLKEKLSKEREEKKRVKAENSRLKKKILDMESSVNRLRRERDTMEKVCEELVTRIDELKVNTRRVWDETEEERQMLQMAEMWREERVRVKFMDAKLALQEKYEEMNLFVVELEKCLETAREVGGIEEKRLRHGEGLIKMAKSMEVVDSKIDFERFEFVSDEGNV”: the protein production result is given as “failed”.

Regarding “MESITQIYRIGYGPSSSHTIGPRRAAEMFLDRNPRATSFRVTLYGSLAATGKGHLTDAAILAVLEAKAPTEIVWKPEIFQNFHPNGMLFESFDKEGKQLDDWLIYSIGGGVLANEHFNEQ”, the protein production entry is reported as “not failed”.

Turning to “MESITVTELKEKILDANPVNIVDVRTDQETAMGIIPGAETIPMNSIPDNLNYFNDNETYYIICKAGGRSAQVVQYLEQNGVNAVNVEGGMDEFGDEGLDIKSILEHHHHHH”, the protein production entry is given as “not failed”.

On to “MESKEERALNNLIVENVNQENDEKDEKEQVANKGEPLALPLNVSEYCVPRGNRRRFRVRQPILQYRWDIMHRLGEPQARMREENMERIGEEVRQLMEKLREKQLSHSLRAVSTDPPHHDHHDEFCLMP”, for which the protein production result was “not failed”.

“MESRWNDEDAARFVEAARAEGQSEALGLRIYTSRLIGSDPDLVLHGGGNTSVKIRSDEGEQLMHIKGSGWDLDTIEAPGLPAVRLASLLEARNTPKLSDPDMVLLLRASLIEKDAPNPSVEALLHAFIPFDYVDHTHATAVLALADQPNMRDAIRRIYGDRLAYVPYVMPGFDLSIAADRIYRSHSDCEGLWLENHGLFSFANDARASYDLMIEFVTLAEQELARAGVALSGPQPNDGER”: the protein production result is recorded as “failed”.

As for “METELVTYKEKNVQMSMLEVIGMIGIIFGVMYGIGYLNFLYEFSLYPWYVNHLISPFTFCMIIVMYAPARNYCVQLVKSIQFNHFKHYVTIVMTMIVLLIYLAVLNLVLPHGLGVEGSNIVIEPTKNEIILYVVVLTIFAPIWEELVFRGMFFMKLSQRFSTLSSAVISAFIFTLGHPLTVGSILYIFGIGICLAYTYKKTNNLLVPIGIHVLNNSFNLLVNFQL”, the protein production result is reported as “failed”.

Take “METEYDQVLRSVAQVNIADQIGESDDVERDGNGVKVSCFTEVFDDVTIQFQIIRLAKQIYVWVGCNSAKFGSLYAAASTRPSNTVSVTSVLGGTSDNTGSGIARRLVLKTGLNIILACNIPKNNPLLEAKAEKVLIRKLIDLGYTMSKPVRAT”: the protein production result was “failed”.

The record behind these values is a protein production outcome set (Wang et al. 2014).
